Experimental data: publication PMC9949256, “Integrated analyses reveal a hinge glycan regulates coronavirus spike tilting and virus infectivity” (Research Square, 2023)

Target: the molecule itself
Assay: cryo-EM structure; cryoET and subtomogram averaging of spikes in situ on vitrified, chemically unfixed, purified HCoV-NL63 virions; C3 symmetry imposed; crown 6.9 Å, stalk with membrane 11.5 Å; focused classification of RBD and domain 0

B1: human coronavirus NL63 (HCoV-NL63) spike glycoprotein (S) (natural protein)
chain: CNSNANLSMLQLGVPDNSSTIVTGLLPTHWFCANQSTSVYSANGFFYIDVGNHRSAFALHTGYYDANQYYIYVTNEIGLNASVTLKICKFSRNTTFDFLSNASSSFDCIVNLLFTEQLGAPLGITISGETVRLHLYNVTRTFYVPAAYKLTKLSVKCYFNYSCVFSVVNATVTVNVTTHNGRVVNYTVCDDCNGYTDNIFSVQQDGRIPNGFPFNNWFLLTNGSTLVDGVSRLYQPLRLTCLWPVPGLKSSTGFVYFNATGSDVNCNGYQHNSVVDVMRYNLNFSANSLDNLKSGVIVFKTLQYDVLFYCSNSSSGVLDTTIPFGPSSQPYYCFINSTINTTHVSTFVGILPPTVREIVVARTGQFYINGFKYFDLGFIEAVNFNVTTASATDFWTVAFATFVDVLVNVSATNIQNLLYCDSPFEKLQCEHLQFGLQDGFYSANFLDDNVLPETYVALPIYYQHTDINFTATASFGGSCYVCKPHQVNISLNGNTSVCVRTSHFSIRYIYNRVKSGSPGDSSWHIYLKSGTCPFSFSKLNNFQKFKTICFSTVEVPGSCNFPLEATWHYTSYTIVGALYVTWSEGNSITGVPYPVSGIREFSNLVLNNCTKYNIYDYVGTGIIRSSNQSLAGGITYVSNSGNLLGFKNVSTGNIFIVTPCNQPDQVAVYQQSIIGAMTAVNESRYGLQNLLQLPNFYYVSNGGNNCTTAVMTYSNFGICADGSLIPVRPRNSSDNGISAIITANLSIPSNWTTSVQVEYLQITSTPIVVDCATYVCNGNPRCKNLLKQYTSACKTIEDALRLSAHLETNDVSSMLTFDSNAFSLANVTSFGDYNLSSVLPQRNIRSSRIAGRSALEDLLFSKVVTSGLGTVDVDYKSCTKGLSIADLACAQYYNGIMVLPGVADAERMAMYTGSLIGGMVLGGLTSAAAIPFSLALQARLNYVALQTDVLQENQKILAASFNKAINNIVASFSSVNDAITQTAEAIHTVTIALNKIQDVVNQQGSALNHLTSQLRHNFQAISNSIQAIYDRLDSIQADQQVDRLITGRLAALNAFVSQVLNKYTEVRGSRRLAQQKINECVKSQSNRYGFCGNGTHIFSIVNSAPDGLLFLHTVLLPTDYKNVKAWSGICVDGIYGYVLRQPNLVLYSDNGVFRVTSRVMFQPRLPVLSDFVQIYNCNVTFVNISRVELHTVIPDYVDVNKTLQEFAQNLPKYVKPNFDLTPFNLTYLNLSSELKQLEAKTASLFQTTVELQGLIDQINSTYVDLKLLNRFENYIKWPWWVWLIISVVFVVLLSLLVFCCLSTGCCGCCNCLTSSMRGCCDCGSTKLPYYEFEKVHVQ
modifications: N-linked glycans at 39 canonical N-glycosylation sites (36 on the crown; N1242, N1247 and N1277 on the stalk), mostly high-mannose
notes: Spike glycoprotein S of human coronavirus NL63, full-length S in the viral envelope; ectodomain residues 1 to 1297 (crown model 1-1224, stalk 1216-1297); Trimeric spike imaged in situ on intact virions; The atomic model covers only the crown (to residue 1224); The stalk model is predicted (I-TASSER, AlphaFold, CCBuilder) and fitted by MDFF; also called S trimer
stoichiometry N: 3
